± gives the standard deviation.
Assay: protein stability index of a GFP-peptide fusion (GPS, HEK-293T) (PSI 1-6); higher = more stable
[1] = treatment: DMSO, c terminus: a fixed tail appended
[2] = treatment: MLN4924 1 uM, 8 h, c terminus: a fixed tail appended
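Also: 24-mer peptide tiles fused after GFP, lentivirally expressed, FACS-sorted into six equal bins by GFP/DsRed ratio, decoded by Illumina sequencing, PSI is the read-weighted mean bin number.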

Sequence | protein stability index [1] | protein stability index [2] | protein stability index (treatment: DMSO, c terminus: native) | protein stability index (treatment: MLN4924 1 uM, 8 h, c terminus: native)
PLDFEAYSAAALQEAMKRLRGAKA [FCHO1] | 3.46 ± 0.25 | 3.62 ± 0.29 |  | 
TPPPGPASAQPLPAPEAAHTTGPT [TFE3] | 5.38 ± 0.27 | 5.38 ± 0.084 |  | 
KPQEIVQVEIFSTNPDLYPVRRID [IQUB] | 2.82 ± 0.38 | 2.79 ± 0.4 |  | 
QLWSNVTPLTFTKVSEGQADIMIS [MMP1] | 2.58 ± 0.24 | 2.66 ± 0.43 |  | 
AEKDRRLKKKHQLLEDARRKGMPF [PPFIA4] | 4.05 ± 0.29 | 4.29 ± 0.16 |  | 
GWGEVMLMADKVLRWERAWFPPAI [ARL6IP1] | 2.87 ± 0.48 | 3.04 ± 0.78 |  | 
SGAFQWEELEEDIRKKLKDSGDVS [RHOBTB3] | 5.17 ± 0.27 | 5.2 ± 0.34 |  | 
ELKCPVCGSFYREPIILPCSHNLC [TRIM9] | 4.1 ± 0.29 | 4.12 ± 0.32 |  | 
RMDKRTLALLVLAHSSDVLENVFS [GOLPH3L] | 2.37 ± 0.53 | 2.22 ± 0.23 |  | 
RLVVEFPATGGAIPSWQIRTVKLI [PKD2L1] | 2.62 ± 0.53 | 2.16 ± 0.36 |  | 
DNILSLINVNDLSFVTGSHVGELI [WDR41] | 2.36 ± 0.32 | 2.63 ± 0.31 |  | 
CNPLRYSVLMGHGVCMGLVAAACA [OR10K2] | 3.37 ± 0.59 | 2.83 ± 0.3 |  | 
LSRVKAAALSERGQAEEELIKAKS [LRRC45] | 5.01 ± 0.19 | 4.97 ± 0.061 |  | 
ADTEEPTKDPDVAFHGLSLGLSLT [PSD2] | 4.37 ± 0.25 | 4.44 ± 0.27 |  | 
RMYPFQIHSIALSTFASLIGPFGG [CDS2] | 2.79 ± 0.33 | 2.61 ± 0.5 |  | 
PCGKYNAMVLELLGPSLEDLFDLC [CSNK1G1] | 2.69 ± 1.2 | 2.21 ± 0.5 |  | 
ATAVGGGFFLLQLANHTGYIKVDW [FUNDC2] | 3.27 ± 0.8 | 3.08 ± 0.47 |  | 
RHFFTSWASCLQYDFDTQYAFVGD [WDFY1] | 2.37 ± 0.28 | 2.39 ± 0.17 |  | 

Sequence | protein stability index [1] | protein stability index [2] | protein stability index (treatment: DMSO, c terminus: native) | protein stability index (treatment: MLN4924 1 uM, 8 h, c terminus: native)
AIHVLGPIDFEESRFYEIHARARD [PCDHGC5] | 2.64 ± 0.45 | 3.01 ± 0.095 |  | 
GGLNTETNEKALEAVFGKYGRIVE [RBMX] | 3.59 ± 0.26 | 3.22 ± 0.47 |  | 
LYHSVKQGPISTKELADFIRERAT [FCHO1] | 2.35 ± 0.14 | 2.4 ± 0.29 |  | 
VPSEWLSSVYKQQWFAMLRAEQDS [GMCL1] | 2.47 ± 0.19 | 2.43 ± 0.17 |  | 
ASFDRRGEYIYTGNAKGKILVLKT [RBBP5] | 2.02 ± 0.19 | 2.29 ± 0.32 |  | 
SSSRNSHLVQHQHPNSRKSSAGGA [ZNF8] | 4.71 ± 0.43 | 4.83 ± 0.23 |  | 
RCLHASQWPVCAACPVRKFWSVG [BRF1] |  |  | 2.4 ± 0.14 | 2.17 ± 0.34
EIQREIGISNALHRLKLRLAIQEM [PPFIA4] | 2.35 ± 0.72 | 2.3 ± 0.45 |  | 
KPLYVAFSFMYILVGLTVIGAFLN [KCNK9] | 2.79 ± 0.67 | 2.97 ± 0.62 |  | 
QQERNDTNFHGVCMFCNEEFLGNR [ZNF277] | 2.96 ± 0.34 | 2.99 ± 0.6 |  | 
LAEALLHPFFAGLTPEERSFHTSR [CLK3] | 2.29 ± 0.2 | 2.21 ± 0.23 |  | 
EQARAYAEKNCMTFFEVSPLCNFN [RAB40C] | 2.49 ± 0.31 | 2.38 ± 0.15 |  | 
YFKEAELKDLLLQVGRGLRYIHSM [WEE1] | 2.48 ± 0.8 | 2.15 ± 0.34 |  | 
YFITLGTEIAEQEGNQKGEQATSL [KCNA1] | 3.79 ± 0.1 | 3.84 ± 0.24 |  | 
HISTFINELDSGFRLLNLKNDSLR [TSN] | 2.23 ± 0.13 | 2.1 ± 0.25 |  | 
TEQAVALLRDRTGQQSDTAQLELY [SCARA5] | 4.61 ± 0.16 | 4.42 ± 0.25 |  | 
DMAGDWHWALRVTPGLGVVAVLLL [SPNS1] | 2.82 ± 0.41 | 2.5 ± 0.48 |  | 
AARSGDAAANKLFHYIPGTDILDL [PLEKHN1] | 3.51 ± 0.39 | 3.35 ± 0.14 |  | 
